From doi:10.1101/2022.09.13.507797 (bioRxiv, 2022) come the findings set out here.

Assay [1] addresses T1, mouse factor H (mouse, UniProt P06909 19-1234). Kind of assay: SPR.
The target of assay [2] is T1, mouse factor H. In words: ELISA.
A further assay addresses human factor H (human, UniProt P08603 19-1231). Kind of assay: ELISA.

T1 sequence (P06909 19-1234): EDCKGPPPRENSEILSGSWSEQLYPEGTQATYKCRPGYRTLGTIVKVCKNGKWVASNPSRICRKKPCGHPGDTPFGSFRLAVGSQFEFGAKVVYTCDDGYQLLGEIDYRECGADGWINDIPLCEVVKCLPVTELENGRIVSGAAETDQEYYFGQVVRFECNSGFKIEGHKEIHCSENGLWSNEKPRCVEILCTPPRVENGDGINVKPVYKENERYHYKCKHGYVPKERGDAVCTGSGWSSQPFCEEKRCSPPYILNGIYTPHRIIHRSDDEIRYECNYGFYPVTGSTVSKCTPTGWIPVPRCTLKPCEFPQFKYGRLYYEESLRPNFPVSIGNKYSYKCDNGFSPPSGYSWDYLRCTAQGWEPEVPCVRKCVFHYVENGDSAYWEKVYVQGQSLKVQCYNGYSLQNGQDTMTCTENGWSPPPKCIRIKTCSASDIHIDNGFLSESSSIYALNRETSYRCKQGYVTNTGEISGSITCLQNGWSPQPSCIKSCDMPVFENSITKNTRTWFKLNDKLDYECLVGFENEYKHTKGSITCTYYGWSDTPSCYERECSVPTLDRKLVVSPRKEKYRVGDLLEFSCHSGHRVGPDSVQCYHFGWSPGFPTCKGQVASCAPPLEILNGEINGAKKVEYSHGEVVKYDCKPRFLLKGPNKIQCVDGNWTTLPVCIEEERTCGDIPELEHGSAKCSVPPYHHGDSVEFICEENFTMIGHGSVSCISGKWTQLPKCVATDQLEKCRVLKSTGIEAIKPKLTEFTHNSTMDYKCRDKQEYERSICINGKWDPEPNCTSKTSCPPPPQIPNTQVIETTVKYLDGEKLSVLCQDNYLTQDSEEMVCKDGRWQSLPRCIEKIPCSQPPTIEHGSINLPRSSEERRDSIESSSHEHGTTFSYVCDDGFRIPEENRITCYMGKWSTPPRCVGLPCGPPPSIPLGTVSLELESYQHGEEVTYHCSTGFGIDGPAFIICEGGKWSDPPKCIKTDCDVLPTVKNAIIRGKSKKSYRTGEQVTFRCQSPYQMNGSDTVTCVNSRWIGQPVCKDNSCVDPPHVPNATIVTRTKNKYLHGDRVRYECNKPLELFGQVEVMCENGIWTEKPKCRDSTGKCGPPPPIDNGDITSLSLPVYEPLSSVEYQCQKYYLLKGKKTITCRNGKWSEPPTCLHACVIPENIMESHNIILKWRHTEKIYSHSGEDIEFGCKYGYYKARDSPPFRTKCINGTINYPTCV
Chain of human factor H (P08603 19-1231): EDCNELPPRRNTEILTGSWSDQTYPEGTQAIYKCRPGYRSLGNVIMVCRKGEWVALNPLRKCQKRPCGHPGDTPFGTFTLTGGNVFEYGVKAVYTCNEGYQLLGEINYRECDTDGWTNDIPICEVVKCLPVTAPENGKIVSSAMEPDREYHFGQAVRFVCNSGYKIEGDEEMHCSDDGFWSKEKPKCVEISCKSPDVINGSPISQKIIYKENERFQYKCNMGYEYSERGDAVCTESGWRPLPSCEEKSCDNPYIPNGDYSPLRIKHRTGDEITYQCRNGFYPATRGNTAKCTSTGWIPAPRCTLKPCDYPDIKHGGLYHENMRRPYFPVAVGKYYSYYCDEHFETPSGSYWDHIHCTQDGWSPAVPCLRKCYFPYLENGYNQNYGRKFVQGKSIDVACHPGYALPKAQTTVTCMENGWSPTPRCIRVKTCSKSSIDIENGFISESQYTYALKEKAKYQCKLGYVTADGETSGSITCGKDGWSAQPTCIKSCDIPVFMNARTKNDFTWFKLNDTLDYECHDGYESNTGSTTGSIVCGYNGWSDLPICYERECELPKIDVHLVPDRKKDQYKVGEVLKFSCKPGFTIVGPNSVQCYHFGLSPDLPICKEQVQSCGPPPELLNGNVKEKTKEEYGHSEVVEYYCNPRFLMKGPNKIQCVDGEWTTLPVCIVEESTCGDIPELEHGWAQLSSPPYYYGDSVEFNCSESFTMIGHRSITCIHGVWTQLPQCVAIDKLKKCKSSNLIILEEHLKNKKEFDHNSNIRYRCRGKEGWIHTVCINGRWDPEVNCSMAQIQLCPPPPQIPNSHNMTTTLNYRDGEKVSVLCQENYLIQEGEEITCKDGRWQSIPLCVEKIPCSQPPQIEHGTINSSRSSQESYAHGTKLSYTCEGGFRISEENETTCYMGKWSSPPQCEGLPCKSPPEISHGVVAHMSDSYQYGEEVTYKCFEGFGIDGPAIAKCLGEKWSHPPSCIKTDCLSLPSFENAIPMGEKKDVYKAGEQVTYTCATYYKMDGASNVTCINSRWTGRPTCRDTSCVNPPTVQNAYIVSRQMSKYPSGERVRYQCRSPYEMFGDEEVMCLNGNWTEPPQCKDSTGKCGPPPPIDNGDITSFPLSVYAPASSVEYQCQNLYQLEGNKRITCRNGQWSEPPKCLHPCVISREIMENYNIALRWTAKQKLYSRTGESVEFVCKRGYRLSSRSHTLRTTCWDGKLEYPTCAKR

B1: CspZ from B. burgdorferi B31 (CspZB31), untagged recombinant protein (natural protein, Borrelia burgdorferi strain B31)
chain: RLNQRNINELKIFVEKAKYYSIKLDAIYNECTGAYNDIMTYSEGTFSDQSKVNQAISIFKKDNKIVNKFKELEKIIEEYKPMFLSKLIDDFAIELDQAVDNDVSNARHVADSYKKLRKSVVLAYIESFDVISSKFVDSKFVEASKKFVNKAKEFVEENDLIALECIVKTIGDMVNDREINSRSRYNNFYKKEADFLGAAVELEGAYKAIKQTLL
For B1, the binding result with mouse factor H [1] is “binds”.

B2: histidine-tagged CspZB31 (natural protein, Borrelia burgdorferi strain B31)
chain: RLNQRNINELKIFVEKAKYYSIKLDAIYNECTGAYNDIMTYSEGTFSDQSKVNQAISIFKKDNKIVNKFKELEKIIEEYKPMFLSKLIDDFAIELDQAVDNDVSNARHVADSYKKLRKSVVLAYIESFDVISSKFVDSKFVEASKKFVNKAKEFVEENDLIALECIVKTIGDMVNDREINSRSRYNNFYKKEADFLGAAVELEGAYKAIKQTLL
For the molecule B2, the binding result with mouse factor H [2] and in the assay with human factor H was “binds” throughout.
